Assay results published in patent US9284543B2, “Neutral active soluble truncated PH20 polypeptides and uses thereof” (Halozyme, Inc., priority 2008, dated 2016).

Experiments:
[1] = Triton X-114 partition assay; assay type: physicochemical; settings: partition into aqueous phase of Triton X-114 at 37° C.
Procedure: Solubility of a hyaluronidase can be determined by any method known to one of the skill in the art. One method for determining solubility is by detergent partitioning. […] For example, the solubility of the PH20 polypeptides described herein is assessed as described in Example 4. Membrane-anchored hyaluronidases, such as lipid-anchored hyaluronidases, including GPI-anchored hyaluronidases, will partition into the detergent-rich phase, but will partition into the detergent-poor or aqueous phase following treatment with Phospholipase C. Phospholipase C is an enzyme that cleaves the […] found in GPI-anchored proteins. Treatment with PLC will cause release of GPI-linked proteins from the outer cell membrane.
The samples were heated to 37° C. for 3 minutes to induce phase separation and centrifuged for 3 min at 4000 g at room temperature. Aqueous and detergent phases were removed for SDS-PAGE analysis and Western blotting. Rabbit anti-PH20 IgG (0.5 μg/mL) was used as the primary antibody and HRP-conjugated goat anti-Rabbit IgG (0.1 ng/mL, Cat#DC03L, EMD) was used as the secondary antibody. Full length human PH20, which partitions strongly into the detergent phase, was used as a control.

[2] = Microtiter hyaluronidase activity assay with biotinylated-hyaluronic acid; assay type: biochemical; settings: for pH 5.5 Activity / pH 7.4 Activity: 72 hour post transfection supernatant; for Hyaluronidase activity (in words): pH 7.4 and pH 5.5
CHO-S cells [3] = experiment: Western blot analysis of PH20 expression in media and cells after transient expression; assay type: cell-based, Chinese Hamster; settings: media versus cells
Summary of the method: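 CHO-S cells were transiently transfected with mutant PH20-HZ24 plasmids using GeneJuice and expressed for 48-72 h at 37 °C, 5% CO2. Media and cells were harvested separately, with PI-PLC treatment used to release GPI-anchored protein. Non-reduced samples were blotted with rabbit anti-PH20 (0.5 μg/mL), and a band near 66 kDa was scored as PH20.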

CHO-S cells [4] = experiment: PI-PLC treatment of expressing cells, Western blot of media and cells; assay type: cell-based, Chinese Hamster; settings: cells incubated with PI-PLC for 2 hours
Procedure: In this example, following transient expression, as described in Example 2 above, the media and cells were harvested separately and analyzed for PH20 expression and solublility by Western blot analysis. Solubility of the C-terminus truncation mutants was determined by examining whether the expressed protein was present in the growth media or in the cells. […] Cells expressing these mutants were treated with phosphoinositol-phospholipase C (PI-PLC), which cleaves the GPI-anchor allowing the release of soluble protein into the media, and the presence of PH20 in the resulting media and cells was determined by Western blot analysis.
Following expression of rHuPH20 in CHO—S cells for 72 hours, as described in Example 2A above, the media and cells were harvested separately. The cells were washed with serum-free media followed by the addition of 2 mL serum-free media per well. PI-PLC (0.5 units/well) was added to each well and the cells were incubated in the PI-PLC for 2 hours. The resultant media and cells were analyzed by Western blot analysis as described above.
Two plates each of rHuPH20 expressing CHO—S cells, one for treatment with PI-PLC and one without treatment with PI-PLC, were prepared for each C-terminus mutant as described in Example 2B above. Following expression for 48 hours, for cells untreated with PI-PLC, the media and cells were harvested separately. The harvested media was spun down, concentrated to a volume of 10 mL, and buffer exchanged into PBS using an Amicon 30 kD MWCO concentrator. The cells were rinsed with cold PBS and scraped and resuspended in 1.2 mL PBS with protease inhibitor Set III (Cat No. 539134, Calbiochem). The resuspended cells were briefly sonicated to prepare whole-cell extract. For PI-PLC treatment of cells, following expression for 48 hours, the untreated media was harvested, as described above. The cells were rinsed once with fresh CD DG44 medium with Glutamax-1, and the media was replaced with 12 mL fresh detergent free CD DG44 medium supplemented with Glutamax-1 with 3.0 units PI-PLC per dish, and the cells were incubated for 2 hours at 37° C. with 5% CO2. After 2 hours, the PI-PLC media and cells were harvested separately, as described above. The resultant untreated media and cells, and PI-PLC treated media and cells, were analyzed by Western blot analysis as described above.

Row | Molecule | pH 5.5 Activity ([2]; Table 6A) [Units/ml] | pH 7.4 Activity ([2]; Table 6A) [Units/ml] | pH 5.5 Activity ([2]; Table 6) [Units/ml] | pH 7.4 Activity ([2]; Table 6) [Units/ml] | Soluble [1] | Hyaluronidase activity (in words) [2] | Expressed in Media (CHO-S cells [3]) | Expressed in Media Following Addition of PI-PLC (CHO-S cells [4])
1 | SPAM1-SILF: C-terminally truncated human PH20, precursor 500 aa (SEQ ID NO:48), mature 465 aa (SEQ ID NO:100) (protein, listed as Homo sapiens, HuPH20 precursor 1-500; Mature HuPH20 36-500) chain 1: MGVLKFKHIFFRSFVKSSGVSQIVFTFLLIPCCLTLNFRAPPVIPNVPFLWAWNAPSEFCLGKFDEPLDMSLFSFIGSPRINATGQGVTIFYVDRLGYYPYIDSITGVTVNGGIPQKISLQDHLDKAKKDITFYMPVDNLGMAVIDWEEWRPTWARNWKPKDVYKNRSIELVQQQNVQLSLTEATEKAKQEFEKAGKDFLVETIKLGKLLRPNHLWGYYLFPDCYNHHYKKPGYNGSCFNVEIKRNDDLSWLWNESTALYPSIYLNTQQSPVAATLYVRNRVREAIRVSKIPDAKSPLPVFAYTRIVFTDQVLKFLSQDELVYTFGETVALGASGIVIWGTLSIMRSMKSCLLLDNYMETILNPYIINVTLAAKMCSQVLCQEQGVCIRKNWNSSDYLHLNPDNFAIQLEKGGKFTVRGKPTLEDLEQFSEKFYCSCYSTLSCKEKADVKDTDAVDVCIADGVCIDAFLKPPMETEEPQIFYNASPSTLSATMFIVSILF chain 2: LNFRAPPVIPNVPFLWAWNAPSEFCLGKFDEPLDMSLFSFIGSPRINATGQGVTIFYVDRLGYYPYIDSITGVTVNGGIPQKISLQDHLDKAKKDITFYMPVDNLGMAVIDWEEWRPTWARNWKPKDVYKNRSIELVQQQNVQLSLTEATEKAKQEFEKAGKDFLVETIKLGKLLRPNHLWGYYLFPDCYNHHYKKPGYNGSCFNVEIKRNDDLSWLWNESTALYPSIYLNTQQSPVAATLYVRNRVREAIRVSKIPDAKSPLPVFAYTRIVFTDQVLKFLSQDELVYTFGETVALGASGIVIWGTLSIMRSMKSCLLLDNYMETILNPYIINVTLAAKMCSQVLCQEQGVCIRKNWNSSDYLHLNPDNFAIQLEKGGKFTVRGKPTLEDLEQFSEKFYCSCYSTLSCKEKADVKDTDAVDVCIADGVCIDAFLKPPMETEEPQIFYNASPSTLSATMFIVSILF | 0.162 | 0.365 |  |  | YES | little detectable activity | WEAK/YES | Initially in media
2 | SPAM1-FIVS: C-terminally truncated human PH20, precursor 497 aa (SEQ ID NO:8), mature 462 aa (SEQ ID NO:60) (protein, listed as Homo sapiens, HuPH20 precursor 1-497; esHuPH20 36-497) chain 1: MGVLKFKHIFFRSFVKSSGVSQIVFTFLLIPCCLTLNFRAPPVIPNVPFLWAWNAPSEFCLGKFDEPLDMSLFSFIGSPRINATGQGVTIFYVDRLGYYPYIDSITGVTVNGGIPQKISLQDHLDKAKKDITFYMPVDNLGMAVIDWEEWRPTWARNWKPKDVYKNRSIELVQQQNVQLSLTEATEKAKQEFEKAGKDFLVETIKLGKLLRPNHLWGYYLFPDCYNHHYKKPGYNGSCFNVEIKRNDDLSWLWNESTALYPSIYLNTQQSPVAATLYVRNRVREAIRVSKIPDAKSPLPVFAYTRIVFTDQVLKFLSQDELVYTFGETVALGASGIVIWGTLSIMRSMKSCLLLDNYMETILNPYIINVTLAAKMCSQVLCQEQGVCIRKNWNSSDYLHLNPDNFAIQLEKGGKFTVRGKPTLEDLEQFSEKFYCSCYSTLSCKEKADVKDTDAVDVCIADGVCIDAFLKPPMETEEPQIFYNASPSTLSATMFIVS chain 2: LNFRAPPVIPNVPFLWAWNAPSEFCLGKFDEPLDMSLFSFIGSPRINATGQGVTIFYVDRLGYYPYIDSITGVTVNGGIPQKISLQDHLDKAKKDITFYMPVDNLGMAVIDWEEWRPTWARNWKPKDVYKNRSIELVQQQNVQLSLTEATEKAKQEFEKAGKDFLVETIKLGKLLRPNHLWGYYLFPDCYNHHYKKPGYNGSCFNVEIKRNDDLSWLWNESTALYPSIYLNTQQSPVAATLYVRNRVREAIRVSKIPDAKSPLPVFAYTRIVFTDQVLKFLSQDELVYTFGETVALGASGIVIWGTLSIMRSMKSCLLLDNYMETILNPYIINVTLAAKMCSQVLCQEQGVCIRKNWNSSDYLHLNPDNFAIQLEKGGKFTVRGKPTLEDLEQFSEKFYCSCYSTLSCKEKADVKDTDAVDVCIADGVCIDAFLKPPMETEEPQIFYNASPSTLSATMFIVS | 0.162 | 0.365 | 0.216 | 0.1755 | YES |  | YES | Initially in media

Second part, led by results:

Row | pH 5.5 Activity ([2]; Table 6A) [Units/ml] | pH 7.4 Activity ([2]; Table 6A) [Units/ml] | pH 5.5 Activity ([2]; Table 6) [Units/ml] | pH 7.4 Activity ([2]; Table 6) [Units/ml] | Molecule | Soluble [1] | Hyaluronidase activity (in words) [2] | Expressed in Media (CHO-S cells [3]) | Expressed in Media Following Addition of PI-PLC (CHO-S cells [4])
3 | 0.122 | 0.486 | 0.045 | 0.02025 | SPAM1-VSIL: C-terminally truncated human PH20, precursor 499 aa (SEQ ID NO:7), mature 464 aa (SEQ ID NO:59) (protein, listed as Homo sapiens, mature HuPH20 36-499) LNFRAPPVIPNVPFLWAWNAPSEFCLGKFDEPLDMSLFSFIGSPRINATGQGVTIFYVDRLGYYPYIDSITGVTVNGGIPQKISLQDHLDKAKKDITFYMPVDNLGMAVIDWEEWRPTWARNWKPKDVYKNRSIELVQQQNVQLSLTEATEKAKQEFEKAGKDFLVETIKLGKLLRPNHLWGYYLFPDCYNHHYKKPGYNGSCFNVEIKRNDDLSWLWNESTALYPSIYLNTQQSPVAATLYVRNRVREAIRVSKIPDAKSPLPVFAYTRIVFTDQVLKFLSQDELVYTFGETVALGASGIVIWGTLSIMRSMKSCLLLDNYMETILNPYIINVTLAAKMCSQVLCQEQGVCIRKNWNSSDYLHLNPDNFAIQLEKGGKFTVRGKPTLEDLEQFSEKFYCSCYSTLSCKEKADVKDTDAVDVCIADGVCIDAFLKPPMETEEPQIFYNASPSTLSATMFIVSIL | YES | little detectable activity | YES | Initially in media
4 | 0.770 | 0.689 | 0.612 | 0.45 | SPAM1-TMFI: C-terminally truncated human PH20, precursor 495 aa (SEQ ID NO:9), mature 460 aa (SEQ ID NO:61) (protein, listed as Homo sapiens, HuPH20 precursor 1-495; esHuPH20 36-495) chain 1: MGVLKFKHIFFRSFVKSSGVSQIVFTFLLIPCCLTLNFRAPPVIPNVPFLWAWNAPSEFCLGKFDEPLDMSLFSFIGSPRINATGQGVTIFYVDRLGYYPYIDSITGVTVNGGIPQKISLQDHLDKAKKDITFYMPVDNLGMAVIDWEEWRPTWARNWKPKDVYKNRSIELVQQQNVQLSLTEATEKAKQEFEKAGKDFLVETIKLGKLLRPNHLWGYYLFPDCYNHHYKKPGYNGSCFNVEIKRNDDLSWLWNESTALYPSIYLNTQQSPVAATLYVRNRVREAIRVSKIPDAKSPLPVFAYTRIVFTDQVLKFLSQDELVYTFGETVALGASGIVIWGTLSIMRSMKSCLLLDNYMETILNPYIINVTLAAKMCSQVLCQEQGVCIRKNWNSSDYLHLNPDNFAIQLEKGGKFTVRGKPTLEDLEQFSEKFYCSCYSTLSCKEKADVKDTDAVDVCIADGVCIDAFLKPPMETEEPQIFYNASPSTLSATMFI chain 2: LNFRAPPVIPNVPFLWAWNAPSEFCLGKFDEPLDMSLFSFIGSPRINATGQGVTIFYVDRLGYYPYIDSITGVTVNGGIPQKISLQDHLDKAKKDITFYMPVDNLGMAVIDWEEWRPTWARNWKPKDVYKNRSIELVQQQNVQLSLTEATEKAKQEFEKAGKDFLVETIKLGKLLRPNHLWGYYLFPDCYNHHYKKPGYNGSCFNVEIKRNDDLSWLWNESTALYPSIYLNTQQSPVAATLYVRNRVREAIRVSKIPDAKSPLPVFAYTRIVFTDQVLKFLSQDELVYTFGETVALGASGIVIWGTLSIMRSMKSCLLLDNYMETILNPYIINVTLAAKMCSQVLCQEQGVCIRKNWNSSDYLHLNPDNFAIQLEKGGKFTVRGKPTLEDLEQFSEKFYCSCYSTLSCKEKADVKDTDAVDVCIADGVCIDAFLKPPMETEEPQIFYNASPSTLSATMFI | YES |  | YES | Initially in media
